FireProtDB (doi:10.1073/pnas.0911904107)

B1: Lipid A palmitoyltransferase PagP, P37001 (parent)
chain: MNVSKYVAIFSFVFIQLISVGKVFANADEWMTTFRENIAQTWQQPEHYDLYIPAITWHARFAYDKEKTDRYNERPWGGGFGLSRWDEKGNWHGLYAMAFKDSWNKWEPIAGYGWESTWRPLADENFHLGLGFTAGVTARDNWNYIPLPVLLPLASVGYGPVTFQMTYIPGTYNNGNVYFAWMRFQF

Variants of: B1
Details: Escherichia coli (strain K12), pH 8, 25 °C, Urea, CD, structure 1THQ, whole UniProt chain shown
[1] = Sodium phosphate 50 mM, reversible: Yes
[2] = sodium phosphate buffer, transition: 2, reversible: yes

Row | Variant | ddG of mutation (higher = less stable) [1] [kJ/mol] | denaturant midpoint (higher = more stable) [1] [M] | unfolding free energy [1] [kJ/mol] | ddG of mutation (higher = less stable) [2] [kJ/mol] | denaturant midpoint (higher = more stable) [2] [M] | unfolding free energy [2] [kJ/mol]
1 | MNVSKYVAIFSFVFIQLISVGKVFANADEWMTTFRENIAQTWQQPEHYDLYIPAITWHARFAYDKEKTDRYNERPAGGGFGLSRWDEKGNWHGLYAMAFKDSWNKWEPIAGYGWESTWRPLADENFHLGLGFTAGVTARDNWNYIPLPVLLPLASVGYGPVTFQMTYIPGTYNNGNVYFAWMRFQF [W76A] | 1.88 | 8.5 | 58.3 | 24.6 | 8.5 | 35.6
2 | MNVSKYVAIFSFVFIQLISVGKVFANADEWMTTFRENIAQTWQQPEHYDLYIPAITWHARFAYDKEKTDRYNERPWGGGAGLSRWDEKGNWHGLYAMAFKDSWNKWEPIAGYGWESTWRPLADENFHLGLGFTAGVTARDNWNYIPLPVLLPLASVGYGPVTFQMTYIPGTYNNGNVYFAWMRFQF [F80A] | 4.39 | 8.13 | 55.8 | 26.2 | 8.13 | 34
3 | MNVSKYVAIFSFVFIQLISVGKVFANADEWMTTFRENIAQTWQQPEHYNLYIPAITWHARFAYDKEKTDRYNERPWGGGFGLSRWDEKGNWHGLYAMAFKDSWNKWEPIAGYGWESTWRPLADENFHLGLGFTAGVTARDNWNYIPLPVLLPLASVGYGPVTFQMTYIPGTYNNGNVYFAWMRFQF [D49N] | 2.51 | 8.4 | 57.6 | 25 | 8.4 | 35.1
4 | MNVSKYVAIFSFVFIQLISVGKVFANADEWMTTFRENIAQTWQQPEHYDLYIPAITWHARFAYDKEKTDRYNERPWGGGFGLARWDEKGNWHGLYAMAFKDSWNKWEPIAGYGWESTWRPLADENFHLGLGFTAGVTARDNWNYIPLPVLLPLASVGYGPVTFQMTYIPGTYNNGNVYFAWMRFQF [S83A] | 5.27 | 8.01 | 54.9 | 26.7 | 8.01 | 33.5
5 | MNVSKYVAIFSFVFIQLISVGKVFANADEWMTTFRENIAQTWQQPEHADLYIPAITWHARFAYDKEKTDRYNERPWGGGFGLSRWDEKGNWHGLYAMAFKDSWNKWEPIAGYGWESTWRPLADENFHLGLGFTAGVTARDNWNYIPLPVLLPLASVGYGPVTFQMTYIPGTYNNGNVYFAWMRFQF [Y48A] | 3.81 | 8.22 | 56.4 | 25.8 | 8.22 | 34.4
6 | MNVSKYVAIFSFVFIQLISVGKVFANADEWMTTFRENIAQTWQQPEHYDLYIPAITWHARFAYDKEKTDRYNERPWGGGFGLSRWDEKGNWHGLYAMAFKDSWNKWEPIGGYGWESTWRPLADENFHLGLGFTAGVTARDNWNYIPLPVLLPLASVGYGPVTFQMTYIPGTYNNGNVYFAWMRFQF [A110G] | 3.64 | 8.24 | 56.5 | – | – | –
7 | MNVSKYVAIFSFVFIQLISVGKVFANADEWMTTFRENIAQTWQQPEHYDLYIPAITWHARFAYDKEKTDRYNERPWGGGFGLSRWDEKGNWHGLYAMAFKDSWNKWEPIAGFGWESTWRPLADENFHLGLGFTAGVTARDNWNYIPLPVLLPLASVGYGPVTFQMTYIPGTYNNGNVYFAWMRFQF [Y112F] | 5.73 | 7.93 | 54.4 | 27 | 7.93 | 33.2
8 | MNVSKYVAIFSFVFIQLISVGKVFANADEWMTTFRENIAQTWQQPEHYDLYIPAITWHARFAYDKEKTDRYNERPWGGGFGLSRWDEKGNWHGLYAAAFKDSWNKWEPIAGYGWESTWRPLADENFHLGLGFTAGVTARDNWNYIPLPVLLPLASVGYGPVTFQMTYIPGTYNNGNVYFAWMRFQF [M97A] | 1.42 | 8.56 | 58.7 | 24.4 | 8.56 | 35.8
